This is an account of results in patent US20150232556A1 (INNATE PHARMA, published 2015).

In experiment [1] the target is T1, KIR3DL2 mutant M14 (W226A) (human, UniProt P43630 22-455).
T1 construct: On transfected HEK-293T cells; also called Mutant 14; Number 14
The experiment in a line: binding to HEK-293T cells transfected with KIR3DL2 mutant; '-' = substantially complete loss of binding.

Experiment [2] addresses T2, wild-type human KIR3DL2 polypeptide (allele *002) (human, UniProt P43630 22-455).
T2 construct: also called WTaKIR3DL2; unmutated wild type KIR3DL2
The experiment in a line: binding to HEK-293T cells transfected with wild-type KIR3DL2.

For experiment [3], the target named is T3, KIR3DL2 mutant M18 (A278H; L279A; C281A; V282A) (human, UniProt P43630 22-455).
T3 construct: On transfected HEK-293T cells; also called Number 18
The experiment in a line: binding to HEK-293T cells transfected with KIR3DL2 mutant.

Experiment [4] has as its target T4, KIR3DL2 mutant M19 (A278H; L279S; V282E) (human, UniProt P43630 22-455).
T4 construct: On transfected HEK-293T cells; also called Number 19
The experiment is described as above.

Experiment [5] concerns the target T5, KIR3DL2 mutant M13 (T212A; N218A) (human, UniProt P43630 22-455).
T5 construct: On transfected HEK-293T cells; also called Number 13
The experiment is described as above.

The target of experiment [6] is T6, KIR3DL2 mutant M17 (P249A) (human, UniProt P43630 22-455).
T6 construct: On transfected HEK-293T cells; also called Mutant 17; Number 17
The description is as above.

Experiment [7] concerns the target T7, KIR3DL2 mutant M21 (C281Y; C315P) (human, UniProt P43630 22-455).
T7 construct: On transfected HEK-293T cells; also called Number 21
The experiment is described as above.

The target in experiment [8] is T8, KIR3DL2 mutant M12 (I196A; L199A; N285A; S286A) (human, UniProt P43630 22-455).
T8 construct: On transfected HEK-293T cells; also called Mutant 12; Number 12
Described as above.

For experiment [9], the target named is T9, KIR3DL2 mutant M3 (R32H; G33R) (human, UniProt P43630 22-455).
T9 construct: On transfected HEK-293T cells; also called Mutant 3; Number 3
Described as above.

Experiment [10] deals with T10, KIR3DL2 mutant M1 + 2A1 (F50A; R53S) (human, UniProt P43630 22-455).
T10 construct: On transfected HEK-293T cells; also called Number 33 (1 + 2 A1)
The experiment is described as above.

Experiment [11] has as its target T11, KIR3DL2 mutant M4 (S45I; V47I) (human, UniProt P43630 22-455).
T11 construct: On transfected HEK-293T cells; also called Number 4
Described as above.

Experiment [12] has as its target T12, KIR3DL2 mutant M1 + 2A3 (P14S; S15A; H23S) (human, UniProt P43630 22-455).
T12 construct: On transfected HEK-293T cells; also called mutant 2A3; Number 35 (1 + 2 A3)
The experiment is described as above.

The target of experiment [13] is T13, KIR3DL2 mutant M6 (R78H; L82P) (human, UniProt P43630 22-455).
T13 construct: On transfected HEK-293T cells; also called Mutant 6; Number 6
The experiment is described as above.

Experiment [14] concerns the target T14, KIR3DL2 mutant M1 (R13W; A25T; Q27R) (human, UniProt P43630 22-455).
T14 construct: On transfected HEK-293T cells; also called Mutant 1; Number 1
The experiment in a line: binding to HEK-293T cells transfected with KIR3DL2 mutant; '-' = substantially complete loss of binding.

For experiment [15], the target named is T15, KIR3DL2 mutant M1 + 2 (R13W; A25T; Q27R; I60N; G62S) (human, UniProt P43630 22-455).
T15 construct: On transfected HEK-293T cells; also called Number 30 (1 + 2)
The experiment is described as above.

For experiment [16], the target named is T16, KIR3DL2 mutant M2 (I60N; G62S) (human, UniProt P43630 22-455).
T16 construct: On transfected HEK-293T cells; also called Mutant 2; Number 2
The description is as above.

In experiment [17] the target is T17, KIR3DL2 mutant MD0/HLA1 (F9S; S11A) (human, UniProt P43630 22-455).
T17 construct: On transfected HEK-293T cells; also called Number 31 (DO-HLA1)
The experiment can be described thus: binding to HEK-293T cells transfected with KIR3DL2 mutant.

The target of a further experiment is T18, KIR3DL2 mutant M5 (P66T) (human, UniProt P43630 22-455).
T18 construct: On transfected HEK-293T cells; also called Number 5
The experiment is described as above.

In experiment [18] the target is T14, KIR3DL2 mutant M1 (R13W; A25T; Q27R). Described as above.
The target of experiment [19] is T19, KIR3DL2 mutant M1 + 2A5 (S140Q) (human, UniProt P43630 22-455).
T19 construct: On transfected HEK-293T cells; also called Number 37 (1 + 2 A5)
The experiment is described as above.

Experiment [20] concerns the target T20, KIR3DL2 mutant MD0/HLA2 (H29S; F34A) (human, UniProt P43630 22-455).
T20 construct: On transfected HEK-293T cells; also called Number 32 (DO-HLA2)
The experiment is described as above.

The target in experiment [21] is T15, KIR3DL2 mutant M1 + 2 (R13W; A25T; …). The description is as above.
Experiment [22] deals with T16, KIR3DL2 mutant M2 (I60N; G62S). Described as above.
Experiment [23] deals with T12, KIR3DL2 mutant M1 + 2A3 (P14S; S15A; …). The experiment in a line: binding to HEK-293T cells transfected with KIR3DL2 mutant; '-' = substantially complete loss of binding.

B1: antibody 20E9 (antibody, V domains shown)
VH: QVQLQQSGAEVARPGASVKLSCKSSGFTFTTYWMQWVKQRPGQGLEWIGAIYPGDGDTRYTQKFKGKATLTADKSSITAYMQLSSLASEDSAVYYCARRGDYGNYGMDYWGQGTSVTVSS
VL: DVLMTQTPLSLPVSLGDQASISCRSSQSIVHSNGNTYLEWYLQKPGQSPKLLIYKVSNHFSGVPDRFSGSGSGTDFTLKISRVEAEDLGVYYCFQGSHVPPTFGGGTKLEIK
notes: Parental murine monoclonal antibody
Regarding B1, the binding result in experiment [1] was “no binding”; in [2], “binds”; in experiment [3] it was “binds”; in experiment [4] it was “binds”; in experiment [5], “binds”; in [6], “binds”. Besides, the binding result in experiment [7] and in experiment [8] was “binds” in each case.

B2: antibody 1C3 (antibody, V domains shown)
VH: QVQLQQSGAELARPGASVKLSCKASGYTFTSYWMQWVKQRPGQGLEWIGAIYPGDGDTRYTQKFKGKATLTADKSSSTAYMQLSSLASEDSAVYYCARRYDGYYHFDYWGQGTTLTVS
VL: DIVMTQSPSSLAVTAGEKVTMSCKSSQSLLWSVNQKNYLSWYQQKQRQPPKLLIYGASIRESWVPDRFTGSGSGTDFTLTISNVHAEDLAVYYCQHNHGSFLPLTFGSGTKLEIK
notes: Parental murine monoclonal antibody; also called 1C3 MAb
On to B2, for which the binding result in experiment [1] is listed as “no binding”; in experiment [2] it was “binds”; in experiment [3], “binds”; in experiment [4], “binds”; in [5], “binds”; in experiment [6], “binds”. In addition, the binding result in experiment [7] and in [8] was “binds” in each case.

B3: antibody 13H1 (antibody, V domains shown)
VH: EVQLQQSGPELVKPGASMKISCKASHYSFIGYTMNWVKQRHGKNLEWIGLINPYNGDTTYNQKFKGKASLTVDKSSSTAYMEILSLTSEDSAVYYCARENWGYPYAMDYWGQGTSVTVS
VL: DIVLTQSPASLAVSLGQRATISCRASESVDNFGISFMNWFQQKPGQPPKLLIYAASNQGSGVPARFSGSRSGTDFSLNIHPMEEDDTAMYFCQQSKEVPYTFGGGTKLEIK
notes: as for B1
For the molecule B3, the binding result in [9] is on record as “binds”; in experiment [10], “binds”; in experiment [11], “binds”; in experiment [12], “binds”; in [13] it was “binds”; in experiment [14] it was “no binding”. Besides, the binding result in [15] and in [16] was “no binding” throughout.

B4: antibody 10F6 (antibody, V domains shown)
VH: QIQLVQSGPELKKPGETVRISCKASGYTFTIAGMQWVQKMPGKGLKWIGWINTHSGVPKYAEDFKGRFAFSLETSANIAYLQISNLKNEDTATYFCARGGDEGVMDYWGQGTSVTVS
VL: DIVMTQSHKFMSTSVGDRVSITCKASQDVSTAVAWYHQKPGQSPKLLIYWASTRHTGVPDRFSGSGSGTDYTLTISALQAEDLALYYCQQHYNTPWTFGGGTKLEIK
notes: as for B1
For the molecule B4, the binding result (in experiment [9]; in experiment [10]; in [11]; in experiment [17]; with KIR3DL2 mutant M5 (P66T); in experiment [18]) was “binds” each time. Moreover, the binding result is “binds” in experiment [19]; “binds” in experiment [13]; “binds” in experiment [20]; “binds” in experiment [2]; “no binding” in [15]; “no binding” in [16].

B5: antibody 2B12 (antibody, V domains shown)
VH: QIQLVQSGPELKKPGETVRISCKASGYTFTTAGMQWVQKTPGKGLKWIGWINSHSGVPKYAEDFKGRFAFSLETSASTAYLQISTLKNEDTATYFCARGGDEGVMDYWGQGTSVTVS
VL: DIVMTQSHKFMSTSLGDRVSFTCKASQDVSTAVAWYQQKPGQSPKLLIYWTSTRHTGVPDRFTGSGSGTDYTLTISSVQAEDLALYYCQQHYSTPWTFGGGTKLEIK
notes: as for B1
With B5, the binding result (in experiment [9]; in experiment [10]; in experiment [11]; in [17]; with KIR3DL2 mutant M5 (P66T); in [18]) was “binds” each time. The binding result is on record as “binds” in experiment [19]; “binds” in experiment [13]; “binds” in [20]; “binds” in [2]; “no binding” in experiment [15]; “no binding” in experiment [16].

B6: antibody 1E2 (antibody, V domains shown)
VH: QVQLQQSGAELVRPGVSVKISCKGSGYTFTDYAMNWVKQSHAKSLEWIGVISTYYGDANYNQKFKGKATMTVDKSSSTAYMELARLTSEDSAIYYCALIYYDYDGSYWGQGTTLTVS
VL: DVVMTQTPLSLPVSLGDQASISCRSSQSLVHSNGNTYLHWYLQKPGQSPKLLIYKVSNRFSGVPDRFSGSGSGTDFTLKISRVEAEDLGVYFCSQSTHVPPYTFGGGTKLEIK
notes: as for B1
Turning to B6, the binding result (in [9]; in experiment [10]; in [11]; in experiment [17]; in the experiment with KIR3DL2 mutant M5 (P66T); in experiment [18]) was “binds” throughout. Moreover, the binding result in experiment [19], in experiment [21], in [22], in [13], in experiment [20] and in experiment [2] was “binds” each time. Also, the binding result in experiment [23] was “no binding”.
